The values below come from a protein production outcome set (Wang et al. 2014).

The data set in a line: label from the status in PepcDB records.
In the case of “MLRSLRLAALLGSLLMAVAASARDIDAASYGYPLTNPFEATIATTPPDKRPELPSDDEITQSDYSLNLRPEREFTLPDNFWAVKKLKYRLARQDHEAPLIFIIAGTGAPYSSSINEYLKKLFYQAGFHVVQLSSPTSYDFMSAASRFATPGISQEDAEDMYRVMQAVRAQHPRLPVSDFYLTGYSLGALDAAFVSHLDETRRSFNFKRVLLLNPPVNLYTSINNLDKLVQTQVKGIDRSTTFYELMLEKLTRYFQDKGYIDLNDALLYDFQQSRQHLSNEQMAMLIGTSFRFSAADIAFTSDLINRRGLIIPPKFPITEGSSLTPFFKRALQCDFDCYMTEQVIPMWRARTDGNSILQLVNQVSLYALEDYLRSSDKIAVMHNADDVILGPGDIGFLRKVFGERLTLYPHGGHCGNLNYRVNSDAMLEFFRG”, the protein production result was “failed”. Take “MLRVTPILLAVLYAFAMYHFSAWRTRRELDARSTELADPALKRLTDRLAAALGVARVPVHIYEIDPVNGLAAPDGRIFITRGFYRKYQSGEVTGEELTSVIAHELGHVALGHSRRRMIDFSGQNAMRTALAMLLGRFIPFFGVWIANMLTTLLAARLSRADEYEADAYAAALLTKAGIGVAPQKALFHKLDALTEQRAGVAPAWLLSHPKTAERIAALDRLEARWQAH”: the protein production result was “failed”. With “MLRYILLKIDIGKEGTDMAAIQAKNGPTEKLSLFLLTWPIFLEVFLFMLMGIADTFMLSALSDDAVSGVGAANQYLHIAILVLEVIGNGAAIVVSQYLGSKRFMEASKISALAVTLNLIVGLVISTGFLLFSKHMMLAMNLQGDVLTYAQNYLSIVGGAIFLQAIINSLAAIIRVHGFTKQAMFISLGMNMIHIAGNYVLIFGKFGFPELGVQGAAISSAVSRLIALIVFFWLLYRVMEYRVKLQYYFTLSKEYIGKILKIGIPSAFEQVMYQACQIVFLYYATYLGTESLAARQYATNISMFTYLFAIAIGMGTAIIIGRLVGGGEKDEAYERLWKSVKWAIGVTLCMVALVITFRTQLMGLFTDNPYIIGLGASVLLLSVLLETGRTMNIVIINSLRAAGDAKYPVLIGAFSMVLMSLPLGYFFAFHLDMGLVGIWLAIAIDEWTRAIIMFFRWKSRAWERYALVKPEEQEENVSVQVQ”, the protein production entry was “failed”. As for “MLSFILSIFPIVLLIYLMVKRNALPSYVALPWVATLVMGVHLLHFNTDIVTISANVVSAIIAVQTPITVIFGAILFNRFSEISGATNIMRKWLGNINPNPVAQLMIIGWAFAFMIEGASGFGTPAAIAAPILVGLGFHPLKVAMLALIMNSVPVSFGAVGTPTWFGFGALKLSEDMILEIGSITAFIHSIAALIIPLLALRILVNWDDIRKNIVFIYISVLGCVVPYFLIAQVNYEFPSLVGGAIGLFISVWAANRNIGLAKVTNTLDNNAVSAGEVVKALFPTGLLIAFLIVTRIHQLPFKAMMNDATIWFSTTLGSLGLFEISKGLIFSLKNIFGSNVSSSYKLLYVPALIPFVITVLIAIPFFKISSSNVKQILVSSLQQSKNPFIALIGALVMVNLMLVGGEHSMVKIIGRTFAEISGSNWTIFSSFLGAIGSFFSGSNTVSNLTFGSVQLSTAETTGISVALVLALQSVGGAMGNMVCINNIVAVSSVLNISNQEGTIIKKTIIPMIIYGIIAALGALFLVPLFYNL”, the protein production result is on record as “failed”. The result for “MLSGVGAPVGKQMLAGTEVAAMQINKAGGLLGREVELVIRDDKYNSSESVAVARELAGDGINLLLGGSQTVTALGLAPLAPELNMAVMIVAAAGMPVTHELFNPNIFRATANNYTQYSSLGRVLIEQNPDVRTWVSLAPDGDFGRDSALFFGKAVEKYAPGEKPTVLDTIYTQATATDFRTQINQLMSSDAEGLYIGIAASAQISFFQQARSVGLYDKFKAIGEVGNGDITGKAMGRNTHPNLWSVCHWIYNAEPFASNPVSKQLYEDYVTLKGDEMPSAQVAAGHRAAMAIFEGIRAAGSTETEAVLAAIEDVEFETVGGPVSFRKEDHQLVNTNYYSQMGPSREEPFFAFNKVVSIDAAEMIEPATPGKAFDISELPQLEHHHHHH” reads “failed”; that for “MLSKHYKLKFPGTLAMKGGYLFVFLAAVMWGTLGIFAKFLYGFNLSTYTIVFYRVLFALIFLAVYLKVRGLPLLMSKDRLPFYLGFSFFSIFLFYSLYFYTVKISSVSFAVLMLYTAPVYSLIFGRILFGEKLTPSKLTAVFLVILGVLLLNLDGKLNVSKLALLTGLASGLTYSLYGVFVKFAVRREEPERVLFNVLLIGLLFLLPVTDLRVPTAALPYLLGLAFFPTFLGYILYNTALKTVEVSKASIIATIEPVVAIILAYFIFGEALSLLQYLGASLIIAGAILAKR”, “failed”. The result for “MLSMIGLVGGLVLLIVLTLRGMNLFISAPLCAVIVALCSGVPLLTGDVNFVSAYMDGFASFVAAWFFMFLLGSMFGKFMEDTGAADSVARWIINKLGRKQAVLAVVLACAILTYGGVSVFVVAFSVYPMALSLFKDANLPRRFIPAALAFGSVTFTMTSAGSPEIQNWIPVKYLGTSPYAAWEVSLVVAVLMATFGYWWLRKIINRAIANGEKFEAREGDPILLERKLPSPISGLIPLLVVLGLSFTFHDTLQQNALIVALLGGVIAIAVINFKHFHKPQTAIHEATTGALVAIGNTAAVVGFGSIAKITPAFDAAVTAMTSLPGNELVGAAVAVSVIAGLTGSASGGQAIALPEVGPHYMAAGVNPEQLHRIVSISSGALDSLPHNGYVVTTIRAICNEKHSAAYWAVAAVTVVVPLMGLAVAIGLFML” reads “failed”; that for “MLSMLALGSEKLMMGNNFPGSGVCFVYTDFGIPEYYRIIVLGLIALVGIKEMLLTSRKEDHFSIDSIDIGIFPLLICFVANFLFAGLEIIFTGLSP”, “failed”; that for “MLSQTLLEMTEQMIEVAEKGADRYQEGKNSNHSYDFFETIKPAVEENDELAARWAEGALELIKVRRPKYVHKEQIEAVKDNFLELVLQSYVHHIHKKRFKDITESVLYTLHAVKDEIAREDSRLEHHHHHH”, “not failed”. For “MLSRIDLYIKHRDIFLKHLELLHKLIEKVEDSSLNESELLNARLVDDMFPFNVQAKIATNFALRACCPLSGKEYKELEGDIDSFCGLKTYVVTAIDYINKLSEPTLEQLNLNVQDTAGFKEISMPASEYMSSFVLPNFFFHISMVYAIAKNNGVSVTKGDFDGIHQYPKGFSWEA”, the protein production result is given as “not failed”. With “MLSRILEKYRENGIQGIVLALISRFPGVRAVCVYYVYRLPFDKLVRKQLSVGNLKVVQVKSDSMGDLIRVQDKPDIFGERFQMGHYGFVAYVNNDPVAYLWGQEGPVHVERRFGFEVPIKDNQVFYYDSYTIPEWRKSGVGRALIQESIDFFKNGLGKSELIAIIETGNLVSQKTYERMGFVREAMHIHLDIIGKKINKQLARMVTQ”, the protein production result is given as “failed”.

As to “MLSTNKFAVLAFATFVAFQAPAHAEDAVVAKVGNLEIHQSELDLAVANLDPQLAQLPDDQKKVAALSAAIDVKLLAAGATTEKLEQTDEFKKRMQYLTDRELHNAYFKKHVVDTVTPDEIKARYDKEVAALPKQEEVHARHILVKTEDEAKDIIKQLDAGKDFAELAKEKSTDPNKSEGGDLGYFSRGRMVKEFEDAAFALEKGAYSKTPVKTDFGYHVIKVEDKRDAPPPPFDQVQDQVRQLVMRDKYLALLNQAKSSAKIEISDETLRKGYDEANKQPEPGSEPPQPAPKQ”, the protein production entry is recorded as “failed”.

Consider “MLSYPRYLAVFLLIIGQSCLAFAEEQPQVGQLFKLFDSGESMPRATIEQNIALLEKLISSDDIERIEKLNQIKCWNQASDTEEEIAKALNYAEQALSQIPSTASTHFITDINLCRAWFLQLTGDINGAMEGYTKSVQSAYEHEDIKLIADARSLRGALYSYTGDFSEALDDLVTAQGLYESLNLTGWANINLTDIATSFRRYGDPESAIKYYKKLKELYLKNGNKEQVANVMSEIGIALDEMGKHEQAIEHFRFSYQYFKDQKLNIVAAINATNIAYSLIQLNRLDEAENYLNEAAPDISENEPAAYSFMKLFMGKIRNQQGRYQEALDELSAAEHAFRVMHNDRGLIQLLQLKSDIYAAMEDLPQAYHILQEFIALTKKVDDSSIAHQTTELKVKFDTSWIESENKRLIDNQKLKEQELTLLEKNKSLQLIILLLTGCILATVSLFAYKQVHRNRQLQTIALTDYLTQLPNRRHIYAQAEQYFQLALKQQIPFSIIIFDADHFKKINDNFGHEIGDQALLTIAEASKTLTTDRNLVGRIGGEEFLILLPNTDADRAWKLAHELQTLITRFGAINLPVELKLTVSAGVATLPIQSELQDQNFARLLKRADNALYEAKNAGRNCVKAAEITG”, for which the protein production entry is “failed”.

With “MLTAFTAGLLLITVSELGDKTFFIAMILAMRYPRRWVLVGVVGGLAAMTILSVLMGQIFTFLPTRYINYAEVALFLIFGTKLLWDARRIKATANLEEMEDAEKAIASGEKKLKIVPRGWGIVVESFALTFVAEWGDRTQIATIALAASNNAWGVSAGAILGHTICAVIAVMGGKFVAGRISEKTVTLIGGLLFYLFAVVSWWTKIA”, the protein production entry is on record as “failed”. Turning to “MLTANIQAASSTRRYSDYVTRSWSHALPIGRKRINLDAIAQLAGERDIVGLQESDPGSLRSGFTNQTCYLAQRAGFHYWSHQPNRRMAGVASSANGLLSRLKPRQIHNHALPGRIPGRGVLLAKFGNGGFDSLVVAVVHLSLGVRSRMAQLVFIADLLAEYPNTILMGDFNCRADCSEMQVLYRRTRLQPPGVVIPTFPSWRPERAIDHILVSEGFYICKTEAVPAAFSDHLAVSMDLVIPQRILRLEHHHHHH”, the protein production entry is recorded as “failed”. Take “MLTDAHCRAAKAKDKLYRINDARGLYLEVKPNGVRAWRYRFKLCGKASWFALGDYPDLSLANAREKCDEARKLVRQGINPVQNRQLTKIKREMDASNTFETIAQEWLALKSWEPVTKSRRLGMLKRVVFPSIGKLPVRTITSAHVLDILNKTVKRGAPTVAAEAKRTMSGVFELAVATLRADTDPVWPVRKALPPNKTQHKAALTSGQVGNLLNAFDSHGGHFQTQMAFRLMWLTLTRANESVQARWDEFDLANGLWKIPKERMKARREHLLPLPRQAVSILTTMQPITGQSTYVFPNRDDRHKPMSDAAFRQALKKLGWATIYSPHGTRTTGSTRLNEMGYRSDAIEAQLAHAEPNSVRRAYNHAIYMVERAEMMQHWADKLDLWKKEASDAAI”: the protein production result was “failed”. Then “MLTDMQRDSASSSTVTTEQIVYGALPLTTINEPECRAIAITSINGSATLSGVSGPMGDQTDADLLIQLRGWADAIVVGAETARKENYGPVVLPHGIKNQRQKLGRCGLPKLTLLSKSLYFDFSSELFSPDLPSELSPLVITQQPANNSEQWDQRLQKLIDVGVEVIVAPTSTNPLKIAFDALHARRLKKISIEGGPSVYRQALSLGIVDRLHLTIAPNIICPVESPLFGKISDDSFTTRLVLEMLSSSPNGLIFSRYKVIRDTLGNPTQ”, with “not failed”; and “MLTEVSDTRIAHKKFGLFYPSVSRPSIFVEGEDRKNFLQGIASQDILKQDEKSLSYSFFLNPKARILFDAWCGNFEDKIALFPPAGTREEFVNHLKKYLFFRTKAKITDMSDHFREIRLVGPETISVLLSLFDNNFSGSSFRMLKNGGYVLIHPTSFQHNLDVGLQADLFIPIDQFETTQKSLEDFTSNKGGVLLDESSYLAYLTEKGIPLFPSELNDSFFPAEAGLDSVGVSYNKGCYVGQEPVTRLKFQGHLNRSLAGFRLEGGPFPKMEFPVTLFNPKDGNEAGILTRTSSSDILGSGIGLGYIKRNFSENGTELLLPDAQLVRVHSLPFV”, with “not failed”. Then “MLTFIVVNYNGEKYLKECLNSIINQTYRKLRVLVIDNGSTDGSRDILRNFEDYYSRFEVIRNEENLGFAKAANQGIEMANTKFVALVNNDAFLERNWAEEMLKAADDLRAGIFASKILFEDGRINSAGHAIHRGLAVMERGFLEKDEGQFDEPCYVAGACAAAAMYRRSLFEDVGLFDEDYFMYNEDVDLSLRALIRGWKILYVPTAIAYHLHSASTGFLSDFSVYYNSRNWVWSVVKNVPRDLLLREFPYFILRNFSSMLFFCLRGNFAILKSKIDAIRELRKFLEKRREVQQKVRFKAVEDYIEGLGFGKALKVARLAGVLR”, with “failed”.
